Test results as given in PMC10681739, “High-throughput data and modeling reveal insights into the mechanisms of cooperative DNA-binding by transcription factor proteins”.

Legend:
RUNX1 = RUNX1 (Homo sapiens, UniProt Q01196); test: gcPBM; 2 nM RUNX1; conditions: tags: N-terminal GST (pDEST15), kept (PMC6008103); label: surface-attached array probe
ETS1:RUNX1 = ETS1:RUNX1 (Homo sapiens, UniProt P14921;Q01196 full;full); test: gcPBM; 1 nM ETS1 + 25 nM RUNX1, anti-ETS1 signal, normalised; conditions: tags: N-terminal GST (pDEST15), kept (PMC6008103); copies: 1;1; label: surface-attached array probe
ETS1:RUNX1, sequence (P14921 whole entry, chain 1 of 2): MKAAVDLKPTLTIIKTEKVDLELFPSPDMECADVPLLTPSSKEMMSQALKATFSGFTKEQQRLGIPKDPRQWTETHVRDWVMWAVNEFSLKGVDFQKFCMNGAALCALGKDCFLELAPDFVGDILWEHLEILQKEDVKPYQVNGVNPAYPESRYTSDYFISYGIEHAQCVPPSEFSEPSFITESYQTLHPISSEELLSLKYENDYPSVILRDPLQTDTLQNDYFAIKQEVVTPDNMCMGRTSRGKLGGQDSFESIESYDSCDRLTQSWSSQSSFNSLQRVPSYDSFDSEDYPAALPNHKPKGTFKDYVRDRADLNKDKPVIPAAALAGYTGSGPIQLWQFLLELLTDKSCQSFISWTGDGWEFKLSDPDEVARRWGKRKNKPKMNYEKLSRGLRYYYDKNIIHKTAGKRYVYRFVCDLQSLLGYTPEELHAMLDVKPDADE
ETS1:RUNX1, sequence (Q01196 whole entry, chain 2 of 2): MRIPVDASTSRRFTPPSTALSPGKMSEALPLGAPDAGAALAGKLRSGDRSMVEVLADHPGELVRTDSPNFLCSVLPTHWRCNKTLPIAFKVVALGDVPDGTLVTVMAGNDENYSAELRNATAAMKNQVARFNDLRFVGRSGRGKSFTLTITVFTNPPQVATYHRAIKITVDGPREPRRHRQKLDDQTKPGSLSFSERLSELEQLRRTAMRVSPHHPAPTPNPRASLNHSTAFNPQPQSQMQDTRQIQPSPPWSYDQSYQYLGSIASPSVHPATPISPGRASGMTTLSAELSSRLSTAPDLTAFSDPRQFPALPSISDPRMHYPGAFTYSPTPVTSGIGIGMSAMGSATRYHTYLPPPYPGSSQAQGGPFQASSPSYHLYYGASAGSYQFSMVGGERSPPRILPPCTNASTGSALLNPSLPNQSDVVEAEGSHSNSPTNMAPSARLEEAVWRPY

RUNX1, sequence (Q01196 whole entry): as the sequence (Q01196 whole entry, chain 2 of 2) above

Binder	binding signal (RUNX1)	binding signal (ETS1:RUNX1)
Table S3 C row 136 (dsDNA) DNA 1: GAACTCAGTACAGGCCGGAAGTCGGGGTACGGGGCC DNA 2: GGCCCCGTACCCCGACTTCCGGCCTGTACTGAGTTC	841 PBM fluorescence, median of replicate spots	–
Table S3 C row 182 (dsDNA) DNA 1: TCTGCAGAGGGTTCCCGGATACACCTTGCGAAGAAT DNA 2: ATTCTTCGCAAGGTGTATCCGGGAACCCTCTGCAGA	844 PBM fluorescence, median of replicate spots	–
Table S3 C row 125 (dsDNA) DNA 1: TTCCATTCGATGATGCTTCCGTATGAATCCATTCAC DNA 2: GTGAATGGATTCATACGGAAGCATCATCGAATGGAA	844 PBM fluorescence, median of replicate spots	–
Table S3 C row 177 (dsDNA) DNA 1: TCTCCTACTCCTGCGCGGATGCTCTAGGCCGCTTGC DNA 2: GCAAGCGGCCTAGAGCATCCGCGCAGGAGTAGGAGA	846 PBM fluorescence, median of replicate spots	–
Table S3 C row 158 (dsDNA) DNA 1: ACAAAAAAACCCTACCTTCCGCCATGTCTGGCCCGG DNA 2: CCGGGCCAGACATGGCGGAAGGTAGGGTTTTTTTGT	847 PBM fluorescence, median of replicate spots	–
Table S3 C row 141 (dsDNA) DNA 1: CTCCAACCCTTGTCCCTTCCGCCTGCCACTGCAGGT DNA 2: ACCTGCAGTGGCAGGCGGAAGGGACAAGGGTTGGAG	850 PBM fluorescence, median of replicate spots	–
Table S3 C row 73 (dsDNA) DNA 1: CCCAGATCACATGACAGGAAGGCAAAGTCCTCAGGT DNA 2: ACCTGAGGACTTTGCCTTCCTGTCATGTGATCTGGG	850 PBM fluorescence, median of replicate spots	–
Table S3 C row 37 (dsDNA) DNA 1: ACCCTCTGTTTTGAGCTTCCGGTAGAGGCTGGTAGG DNA 2: CCTACCAGCCTCTACCGGAAGCTCAAAACAGAGGGT	852 PBM fluorescence, median of replicate spots	–
Table S2 A row 1371 (dsDNA) DNA 1: GAACCTGGGAGGCGGAAGTTGCGGTTAGCCGAGATC DNA 2: GATCTCGGCTAACCGCAACTTCCGCCTCCCAGGTTC	–	64700 PBM fluorescence, median of replicate spots
Table S2 A row 1184 (dsDNA) DNA 1: GAAGCTCCCCAAACAGGATGTGGTTAGGGAGAGGGG DNA 2: CCCCTCTCCCTAACCACATCCTGTTTGGGGAGCTTC	–	58300 PBM fluorescence, median of replicate spots
Table S2 A row 1460 (dsDNA) DNA 1: TAGCCACTAACCGGAAACGTTAAACCACAGCTCCGT DNA 2: ACGGAGCTGTGGTTTAACGTTTCCGGTTAGTGGCTA	–	56100 PBM fluorescence, median of replicate spots
Table S2 A row 1295 (dsDNA) DNA 1: GCTCTGGGTCACACAGGATGTGGTTTTTGAAGTTTG DNA 2: CAAACTTCAAAAACCACATCCTGTGTGACCCAGAGC	–	49000 PBM fluorescence, median of replicate spots
Table S2 A row 706 (dsDNA) DNA 1: TAGCCACGAACCGGAAACGTTAAACCACAGCTCCGT DNA 2: ACGGAGCTGTGGTTTAACGTTTCCGGTTCGTGGCTA	–	46400 PBM fluorescence, median of replicate spots
Table S2 A row 1759 (dsDNA) DNA 1: CCTGTTGATAAAACAGGATGTGGTAAAGAAGCTGGC DNA 2: GCCAGCTTCTTTACCACATCCTGTTTTATCAACAGG	–	43300 PBM fluorescence, median of replicate spots
Table S2 A row 978 (dsDNA) DNA 1: ACTGAACAAACCGGATGTGGTTGCCACCTGCAATCT DNA 2: AGATTGCAGGTGGCAACCACATCCGGTTTGTTCAGT	–	38500 PBM fluorescence, median of replicate spots
Table S2 A row 1401 (dsDNA) DNA 1: GCATTTACGGGCAGGAAATGAAACCACAGAGTACAA DNA 2: TTGTACTCTGTGGTTTCATTTCCTGCCCGTAAATGC	–	36500 PBM fluorescence, median of replicate spots
Table S2 A row 167 (dsDNA) DNA 1: GACAATGAGCGCACAGGATGTGGTTTGGCGGCAGGG DNA 2: CCCTGCCGCCAAACCACATCCTGTGCGCTCATTGTC	–	33400 PBM fluorescence, median of replicate spots
Table S2 A row 280 (dsDNA) DNA 1: CCTGCAGCAACAGGATGTGGTTTGAAAGGATGAAAG DNA 2: CTTTCATCCTTTCAAACCACATCCTGTTGCTGCAGG	–	32100 PBM fluorescence, median of replicate spots
Table S2 A row 393 (dsDNA) DNA 1: CTGACGCATTTCCGGCCTTTGCGGTTGATCGGTCAT DNA 2: ATGACCGATCAACCGCAAAGGCCGGAAATGCGTCAG	–	30800 PBM fluorescence, median of replicate spots
Table S2 A row 443 (dsDNA) DNA 1: CCATGCACAACAGGATGTGGTTAGACAGTCAAAATT DNA 2: AATTTTGACTGTCTAACCACATCCTGTTGTGCATGG	–	29600 PBM fluorescence, median of replicate spots
Table S2 A row 270 (dsDNA) DNA 1: CTCATTGACAGGAAGTCTAACCACAGGCTTAGGCCC DNA 2: GGGCCTAAGCCTGTGGTTAGACTTCCTGTCAATGAG	–	29200 PBM fluorescence, median of replicate spots
Table S2 A row 1217 (dsDNA) DNA 1: TGGGGGATGGCAGCAGGATGTGGTTATCTCAGAAAG DNA 2: CTTTCTGAGATAACCACATCCTGCTGCCATCCCCCA	–	29000 PBM fluorescence, median of replicate spots

Binder	binding signal (RUNX1)	binding signal (ETS1:RUNX1)
Table S2 A row 327 (dsDNA) DNA 1: AATTGAGACAGGAAATGTTGGTTTGTGGTCAGGCAC DNA 2: GTGCCTGACCACAAACCAACATTTCCTGTCTCAATT	–	28000 PBM fluorescence, median of replicate spots
Table S2 A row 987 (dsDNA) DNA 1: TGGGCAGGAAGTGGTATCTGATTGTGGTTTTGATTT DNA 2: AAATCAAAACCACAATCAGATACCACTTCCTGCCCA	–	25700 PBM fluorescence, median of replicate spots
Table S2 A row 166 (dsDNA) DNA 1: GATATGGCAGGAAGTAGGGCCTGGAAACCGCACGGC DNA 2: GCCGTGCGGTTTCCAGGCCCTACTTCCTGCCATATC	–	25500 PBM fluorescence, median of replicate spots
Table S2 A row 1758 (dsDNA) DNA 1: GCTGATAGAACAGGATGTGGTAAAGAAGCAGGCCAA DNA 2: TTGGCCTGCTTCTTTACCACATCCTGTTCTATCAGC	–	24600 PBM fluorescence, median of replicate spots
Table S2 A row 964 (dsDNA) DNA 1: AATCTGAAACAGGAAATAAGTCTGTGGTTGTGTGTT DNA 2: AACACACAACCACAGACTTATTTCCTGTTTCAGATT	–	23600 PBM fluorescence, median of replicate spots
Table S2 A row 1206 (dsDNA) DNA 1: TTGATTGGAGCAGGATGTGGTCAGAACAGTATGCAG DNA 2: CTGCATACTGTTCTGACCACATCCTGCTCCAATCAA	–	23200 PBM fluorescence, median of replicate spots
Table S2 A row 1136 (dsDNA) DNA 1: CCCGCTCACGCCGGAAGTGGTTTGCGTTTTCAAGAT DNA 2: ATCTTGAAAACGCAAACCACTTCCGGCGTGAGCGGG	–	22300 PBM fluorescence, median of replicate spots
Table S2 A row 1146 (dsDNA) DNA 1: GACACAAGCCTCACAGGATGTGGTCAAAGAAGGTTG DNA 2: CAACCTTCTTTGACCACATCCTGTGAGGCTTGTGTC	–	20600 PBM fluorescence, median of replicate spots
Table S2 A row 466 (dsDNA) DNA 1: GTGCTAGGACACAGGAAGCGATACCACAAAGAACAT DNA 2: ATGTTCTTTGTGGTATCGCTTCCTGTGTCCTAGCAC	–	19800 PBM fluorescence, median of replicate spots
Table S2 A row 92 (dsDNA) DNA 1: GTCCCCGTAACAGGATGTGGTGAGCTGTTATACCAC DNA 2: GTGGTATAACAGCTCACCACATCCTGTTACGGGGAC	–	19700 PBM fluorescence, median of replicate spots
Table S2 A row 644 (dsDNA) DNA 1: GCCGGCGGCCGGAAGTCTATCCCGCAGAAGCGCAGC DNA 2: GCTGCGCTTCTGCGGGATAGACTTCCGGCCGCCGGC	–	19100 PBM fluorescence, median of replicate spots
Table S2 A row 966 (dsDNA) DNA 1: GGCCTTCATTACACAGGATGCGGTTGAAATGCATCA DNA 2: TGATGCATTTCAACCGCATCCTGTGTAATGAAGGCC	–	18400 PBM fluorescence, median of replicate spots
Table S2 A row 223 (dsDNA) DNA 1: AGGGAACAGGAAATGCAAAAAACCACAAGGGACAAG DNA 2: CTTGTCCCTTGTGGTTTTTTGCATTTCCTGTTCCCT	–	18100 PBM fluorescence, median of replicate spots
Table S2 A row 435 (dsDNA) DNA 1: GACACAAGAACAGCAGGATGTGGTCAGAGGCGTCGT DNA 2: ACGACGCCTCTGACCACATCCTGCTGTTCTTGTGTC	–	17700 PBM fluorescence, median of replicate spots
Table S2 A row 553 (dsDNA) DNA 1: CCTTGCAGCAACGGATGTGGGTTTTTTTTTTTCTTT DNA 2: AAAGAAAAAAAAAAACCCACATCCGTTGCTGCAAGG	–	17200 PBM fluorescence, median of replicate spots
Table S2 A row 483 (dsDNA) DNA 1: AACCAAACAGCCACAGGAAGTGGTTTCTGTGATTCA DNA 2: TGAATCACAGAAACCACTTCCTGTGGCTGTTTGGTT	–	16800 PBM fluorescence, median of replicate spots
Table S2 A row 930 (dsDNA) DNA 1: AGCTCCACCGGAAACGGCCTGGCCGCAGCCAATCAG DNA 2: CTGATTGGCTGCGGCCAGGCCGTTTCCGGTGGAGCT	–	16700 PBM fluorescence, median of replicate spots
Table S2 A row 1142 (dsDNA) DNA 1: ACAATAACAGGAAGTGGTGGGGACTGCGGTGACCTG DNA 2: CAGGTCACCGCAGTCCCCACCACTTCCTGTTATTGT	–	16500 PBM fluorescence, median of replicate spots
Table S2 A row 1210 (dsDNA) DNA 1: CGGGAGGGGCAGGAAGCGGACTGCGGTGGGGAAGGG DNA 2: CCCTTCCCCACCGCAGTCCGCTTCCTGCCCCTCCCG	–	16400 PBM fluorescence, median of replicate spots
Table S2 A row 338 (dsDNA) DNA 1: GCCCAGGGCGGCCGGAAGTTTGCGGGGCGGGGCGGA DNA 2: TCCGCCCCGCCCCGCAAACTTCCGGCCGCCCTGGGC	–	16100 PBM fluorescence, median of replicate spots
Table S2 A row 397 (dsDNA) DNA 1: AGGGGAGGAACCAGGAAGTTGTGGTAAACTGTAGCA DNA 2: TGCTACAGTTTACCACAACTTCCTGGTTCCTCCCCT	–	15800 PBM fluorescence, median of replicate spots
